Measurements published in patent US20110223163A1 (US Dept. of Health and Human Services, published 2011).

How the values were obtained:
[1] = target: synthetic 10-mer peptide of γ-D-glutamic acids
[2] = target: BSA (UniProt P02769 25-607); assay: ELISA, full-length IgG
Sequence of BSA (P02769 25-607 limits assumed): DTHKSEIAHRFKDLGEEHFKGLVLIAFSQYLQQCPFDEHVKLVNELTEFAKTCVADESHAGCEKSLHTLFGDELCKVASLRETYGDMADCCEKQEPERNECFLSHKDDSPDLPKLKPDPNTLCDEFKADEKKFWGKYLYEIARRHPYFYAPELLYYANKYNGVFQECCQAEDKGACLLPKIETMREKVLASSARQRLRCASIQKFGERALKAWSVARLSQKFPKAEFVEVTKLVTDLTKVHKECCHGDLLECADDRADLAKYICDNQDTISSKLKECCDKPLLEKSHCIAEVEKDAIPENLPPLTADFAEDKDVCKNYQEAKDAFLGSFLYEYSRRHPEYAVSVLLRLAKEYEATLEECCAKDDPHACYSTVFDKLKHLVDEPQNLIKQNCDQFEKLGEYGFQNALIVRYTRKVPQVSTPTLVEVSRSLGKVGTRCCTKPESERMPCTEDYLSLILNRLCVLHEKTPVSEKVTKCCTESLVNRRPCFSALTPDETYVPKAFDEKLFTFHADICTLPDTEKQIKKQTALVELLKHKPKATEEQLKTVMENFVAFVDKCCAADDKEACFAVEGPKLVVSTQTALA

B1: anti-γDPGA chimpanzee monoclonal antibody 11D, full-length IgG with human γ1 constant regions (antibody, V domains shown)
VH: LESGGGLVKPGGSLTLSCAASGFTFSTYAMHWVRQAPEKGLEWVSTIGRSGDTLYSDSVKGRFSISRDNSKNTLYLQMNSLRAEDTAVYYCARKGYCSSTNCQSQYYFDYWGQGTLVTVS
VL: ELTQSPSSLSASVGGRVTITCRASQDVNTWLAWYQQKPGKAPKPLIYAASSLQGGVPSRFSGSGSGTDFTLTISSLQPEDFATYYCQQYKHYPLTFGGGTKVEIKR
notes: also called 11D IgG; CH11D-hG1
B1 was tested, and the Kd [1] was 0.082 nM, the koff [1] was 9.04e-05 s⁻¹ and the kon [1] was 1.1e+06 M⁻¹ s⁻¹. B1: no binding [2].

B2: anti-γDPGA chimpanzee monoclonal antibody 4C, full-length IgG with human γ1 constant regions (antibody, V domains shown)
VH: LEESGGGLVKPGDSLRLSCAASGFTFSVYAMHWVRQAPEKGLEWVSTIGAGGNTWHSDSVKGRYTIARDNSQNTLSLQMNSLRAEDTAVYYCVRRGYCSSTRCDSNDAFDIWGQGTMVTVS
VL: APMTQSPSSLSASVGDRVSITCRASQDINDFLAWFQQKPGKAPKRLIFRTSSLQGGVSSRFSGSGSGTEFTLTISNLRPEDFATYYCLQHSSYPPTFGQGTKLEISR
notes: also called 4C IgG; IgG1 of anti-γDPGA 4C monoclonal antibody
B2 was tested, and the Kd [1] was 0.55 nM, the koff [1] was 0.0023 s⁻¹ and the kon [1] was 4.2e+06 M⁻¹ s⁻¹. B2: no binding [2].
